These results are taken from patent publication US20050239064A1 (published 2005).

Experiment [1] deals with T1, truncated Mam protein (carboxy-terminal 32 amino acids of full-length Drosophila Mastermind deleted) fused to … (Drosophila, UniProt P21519 1-1562).
T1 construct: also called truncated Mam fusion protein
The experiment can be described thus: yeast two-hybrid, lacZ reporter. The text has this:
FIG. 13 is a graph showing Mam-Mip complex driven transcription in a two-hybrid analysis in yeast. The yeast strain EGY48 was co-transformed with a plasmid encoding a Mam-Gal4 DNA binding domain fusion protein and either a plasmid encoding Mip1, Mip30 or Mip6 fused to the E. coli B42 transactivation domain, or a control plasmid (pJG4-5). The DNA binding domain was derived from plasmid pEG202. […] In the presence of glucose, the expression of Mam is repressed and only a very low level of β-galactosidase activity is detected. In the presence of galactose, the expression of Mam is induced and a large increase in β-galactosidase activity is observed with those proteins that interact with Mam. Extracts were prepared and activity measured from equal number of cells.
To elucidate the function of Mam and its role in Notch signaling, proteins with which Mam interacts were identified. Complementary DNA encoding a truncated Mam protein, in which the carboxy-terminal 32 amino acids of full-length Mam were deleted, was fused to the Gal4 DNA-binding domain encoded by the yeast expression vector pEG202. A truncated Mam fusion protein was used because it elicited a lower autonomous transactivational response from yeast reporter genes than full-length Mam. […]

Experiment [2] has as its target T2, Drosophila Mastermind (Mam) tagged at its amino terminus with the Flag epitope, expressed from pcDNA3 in 293T … (Drosophila, UniProt P21519 1-1594).
T2 construct: Expressed inside transfected human 293T cells
Description: co-expression in 293T cells, indirect immunofluorescence. The source says: Mastermind and the entire intracellular domain of Drosophila Notch were co-expressed from pcDNA3 vectors (obtained from Invitrogen, Carlsbad, Calif.). Intracellular Notch was visualized with the 9C6 monoclonal antibody (Rebay, 1983, Thesis, Yale University) and a Cy-2-conjugated goat anti-mouse IgG secondary antibody. Flag epitope-tagged Mam was visualized with an anti-Flag polyclonal antibody and a Cy-5-conjugated goat anti-rabbit secondary antibody. Nuclei were counterstained with DAPI. In the absence of Mam, intracellular Notch is homogeneously distributed throughout the nucleoplasm; however, when co-expressed with Mam, intracellular Notch accumulates in nuclear bodies.

T2 sequence (P21519 other isoform, or with tags, fused parts or gaps): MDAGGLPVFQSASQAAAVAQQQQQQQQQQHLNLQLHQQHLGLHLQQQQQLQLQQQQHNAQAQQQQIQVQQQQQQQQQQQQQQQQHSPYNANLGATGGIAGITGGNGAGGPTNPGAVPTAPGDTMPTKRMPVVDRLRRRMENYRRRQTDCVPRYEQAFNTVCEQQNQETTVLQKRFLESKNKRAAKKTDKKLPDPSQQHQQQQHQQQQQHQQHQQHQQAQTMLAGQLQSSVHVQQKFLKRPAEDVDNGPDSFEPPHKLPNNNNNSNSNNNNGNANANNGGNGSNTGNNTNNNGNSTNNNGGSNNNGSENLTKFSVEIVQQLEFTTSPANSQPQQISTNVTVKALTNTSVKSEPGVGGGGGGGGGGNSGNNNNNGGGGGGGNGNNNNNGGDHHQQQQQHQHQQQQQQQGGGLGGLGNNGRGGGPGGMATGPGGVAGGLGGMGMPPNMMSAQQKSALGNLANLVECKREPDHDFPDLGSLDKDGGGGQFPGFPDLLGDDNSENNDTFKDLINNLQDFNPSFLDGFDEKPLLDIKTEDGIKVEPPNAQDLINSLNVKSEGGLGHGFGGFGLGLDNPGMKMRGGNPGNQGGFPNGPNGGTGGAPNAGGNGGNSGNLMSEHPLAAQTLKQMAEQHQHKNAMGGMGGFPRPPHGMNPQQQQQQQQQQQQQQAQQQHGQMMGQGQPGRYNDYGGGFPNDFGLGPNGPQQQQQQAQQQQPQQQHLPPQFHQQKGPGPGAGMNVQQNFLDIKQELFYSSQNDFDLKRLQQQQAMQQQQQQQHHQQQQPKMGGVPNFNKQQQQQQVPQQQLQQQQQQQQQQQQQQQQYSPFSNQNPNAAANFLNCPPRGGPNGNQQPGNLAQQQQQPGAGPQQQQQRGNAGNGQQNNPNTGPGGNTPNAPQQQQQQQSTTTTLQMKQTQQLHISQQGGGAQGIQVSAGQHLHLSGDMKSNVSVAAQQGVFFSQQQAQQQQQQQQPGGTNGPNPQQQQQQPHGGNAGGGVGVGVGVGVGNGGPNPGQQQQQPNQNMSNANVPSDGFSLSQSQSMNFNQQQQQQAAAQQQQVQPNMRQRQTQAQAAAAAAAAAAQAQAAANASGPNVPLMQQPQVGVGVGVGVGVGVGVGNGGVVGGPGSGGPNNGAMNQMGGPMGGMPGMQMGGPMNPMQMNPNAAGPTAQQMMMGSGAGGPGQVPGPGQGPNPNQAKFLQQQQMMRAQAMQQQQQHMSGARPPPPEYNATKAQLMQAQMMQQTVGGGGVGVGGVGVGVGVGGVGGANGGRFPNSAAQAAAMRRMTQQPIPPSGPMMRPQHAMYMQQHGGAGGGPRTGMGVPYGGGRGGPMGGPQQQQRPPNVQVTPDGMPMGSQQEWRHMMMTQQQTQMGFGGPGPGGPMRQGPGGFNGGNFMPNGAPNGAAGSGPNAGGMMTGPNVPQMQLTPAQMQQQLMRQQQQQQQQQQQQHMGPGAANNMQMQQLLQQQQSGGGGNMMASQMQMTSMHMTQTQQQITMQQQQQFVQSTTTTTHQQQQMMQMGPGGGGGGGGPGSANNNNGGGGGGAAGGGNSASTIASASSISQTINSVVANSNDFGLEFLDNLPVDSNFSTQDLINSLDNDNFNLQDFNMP
T1 sequence (P21519 other isoform, or with tags, fused parts or gaps limits assumed): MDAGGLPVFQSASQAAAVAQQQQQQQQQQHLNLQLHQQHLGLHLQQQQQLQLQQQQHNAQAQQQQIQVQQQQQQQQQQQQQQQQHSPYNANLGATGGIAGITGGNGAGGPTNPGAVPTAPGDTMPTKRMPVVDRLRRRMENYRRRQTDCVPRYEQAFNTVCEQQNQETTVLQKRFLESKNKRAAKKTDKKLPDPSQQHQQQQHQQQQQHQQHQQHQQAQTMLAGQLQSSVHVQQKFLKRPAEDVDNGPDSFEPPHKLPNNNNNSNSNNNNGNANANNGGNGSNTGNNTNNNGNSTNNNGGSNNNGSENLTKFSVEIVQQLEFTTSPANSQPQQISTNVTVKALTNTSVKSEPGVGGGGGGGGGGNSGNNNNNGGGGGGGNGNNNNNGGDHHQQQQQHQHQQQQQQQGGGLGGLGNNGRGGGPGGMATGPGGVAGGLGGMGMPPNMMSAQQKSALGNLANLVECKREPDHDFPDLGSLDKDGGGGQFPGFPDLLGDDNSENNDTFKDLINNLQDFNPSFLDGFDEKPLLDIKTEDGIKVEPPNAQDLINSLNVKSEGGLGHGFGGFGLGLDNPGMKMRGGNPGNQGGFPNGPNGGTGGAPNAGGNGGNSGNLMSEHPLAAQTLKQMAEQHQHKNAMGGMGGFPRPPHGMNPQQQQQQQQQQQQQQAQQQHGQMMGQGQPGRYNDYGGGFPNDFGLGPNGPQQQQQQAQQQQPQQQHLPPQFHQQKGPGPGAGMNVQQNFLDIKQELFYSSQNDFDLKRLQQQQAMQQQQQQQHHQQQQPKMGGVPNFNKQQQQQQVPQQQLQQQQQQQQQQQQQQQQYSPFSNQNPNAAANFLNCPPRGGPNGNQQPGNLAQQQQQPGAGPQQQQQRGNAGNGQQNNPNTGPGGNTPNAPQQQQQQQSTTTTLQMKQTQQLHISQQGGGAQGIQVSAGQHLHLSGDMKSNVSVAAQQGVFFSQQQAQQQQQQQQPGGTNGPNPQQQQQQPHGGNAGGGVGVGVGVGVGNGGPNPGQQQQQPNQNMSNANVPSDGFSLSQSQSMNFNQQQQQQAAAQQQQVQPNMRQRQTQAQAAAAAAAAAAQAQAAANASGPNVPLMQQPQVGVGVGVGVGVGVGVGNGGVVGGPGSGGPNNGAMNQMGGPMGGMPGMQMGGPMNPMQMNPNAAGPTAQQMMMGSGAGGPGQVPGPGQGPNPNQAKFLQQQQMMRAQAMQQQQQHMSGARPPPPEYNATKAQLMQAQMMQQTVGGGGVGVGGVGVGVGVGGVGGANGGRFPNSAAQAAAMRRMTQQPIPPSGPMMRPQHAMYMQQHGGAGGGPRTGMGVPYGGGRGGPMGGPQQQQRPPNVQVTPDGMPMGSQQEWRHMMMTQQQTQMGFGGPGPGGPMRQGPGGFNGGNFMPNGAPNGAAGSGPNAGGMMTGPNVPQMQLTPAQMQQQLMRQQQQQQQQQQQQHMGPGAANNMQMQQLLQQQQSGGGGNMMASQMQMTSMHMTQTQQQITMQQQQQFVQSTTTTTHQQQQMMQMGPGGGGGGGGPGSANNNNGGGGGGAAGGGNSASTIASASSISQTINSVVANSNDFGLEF

B1: Mip6 two-hybrid clone, amino-terminally truncated, fused to the E. coli B42 transactivation domain encoded by pJG4-5 (other, not shown: large carriers)
chain: PKTKQSTFVVSPKPEPKSPAVAFLQPSIPLRSSNQPQTVVGSSSTGRKPLNVGLTMEWTKKKFFSAASGIPQRRQNQIKQPYANIVSPIRTYTQKSGTAPLMSTFRPTSSDMLSTLAISELEQESRLCHPKALFATKDETPKSSEAESLIINGIDSAADLLPKKAYISSEIKHVVDERTPLPMPKVPQIQKYLNSAVEPTVMRHDGKMKMPGEAVRNPSSSHIPRRANHSLADLSLASGDVSLYTIRDAQKF
Take B1: the binding result in experiment [1] is given as “binds”.

B2: entire intracellular domain of Drosophila Notch, expressed from pcDNA3 in 293T cells (receptor, UniProt P07207 1767-2703, looked up)
chain: QRKRAHGVTWFPEGFRAPAAVMSRRRRDPHGQEMRNLNKQVAMQSQGVGQPGAHWSDDESDMPLPKRQRSDPVSGVGLGNNGGYASDHTMVSEYEEADQRVWSQAHLDVVDVRAIMTPPAHQDGGKHDVDARGPCGLTPLMIAAVRGGGLDTGEDIENNEDSTAQVISDLLAQGAELNATMDKTGETSLHLAARFARADAAKRLLDAGADANCQDNTGRTPLHAAVAADAMGVFQILLRNRATNLNARMHDGTTPLILAARLAIEGMVEDLITADADINAADNSGKTALHWAAAVNNTEAVNILLMHHANRDAQDDKDETPLFLAAREGSYEACKALLDNFANREITDHMDRLPRDVASERLHHDIVRLLDEHVPRSPQMLSMTPQAMIGSPPPGQQQPQLITQPTVISAGNGGNNGNGNASGKQSNQTAKQKAAKKAKLIEGSPDNGLDATGSLRRKASSKKTSAASKKAANLNGLNPGQLTGGVSGVPGVPPTNSAAQAAAAAAAAVAAMSHELEGSPVGVGMGGNLPSPYDTSSMYSNAMAAPLANGNPNTGAKQPPSYEDCIKNAQSMQSLQGNGLDMIKLDNYAYSMGSPFQQELLNGQGLGMNGNGQRNGVGPGVLPGGLCGMGGLSGAGNGNSHEQGLSPPYSNQSPPHSVQSSLALSPHAYLGSPSPAKSRPSLPTSPTHIQAMRHATQQKQFGGSNLNSLLGGANGGGVVGGGGGGGGGVGQGPQNSPVSLGIISPTGSDMGIMLAPPQSSKNSAIMQTISPQQQQQQQQQQQQQHQQQQQQQQQQQQQQQQQLGGLEFGSAGLDLNGFCGSPDSFHSGQMNPPSIQSSMSGSSPSTNMLSPSSQHNQQAFYQYLTPSSQHSGGHTPQHLVQTLDSYPTPSPESPGHWSSSSPRSNSDWSEGVQSPAANNLYISGGHQANKGSEAIYI
notes: domain: entire intracellular domain; also called intracellular Notch
As to B2, the binding result in experiment [2] is on record as “binds”.
